The experiment has as its target T1, human Glucose-regulated protein 78 (Grp78) (human, UniProt P11021 19-654).
T1 construct: whole, on cells; also called Grp78/Bip; cell surface localized Grp78
The experiment in a line: western blot of whole cell extracts with purified scFv. For orientation: In western blotting, separated proteins are transferred to a membrane and probed.

The values that follow come from patent publication WO2005085862A1 (dated 2005).

T1 sequence (P11021 19-654): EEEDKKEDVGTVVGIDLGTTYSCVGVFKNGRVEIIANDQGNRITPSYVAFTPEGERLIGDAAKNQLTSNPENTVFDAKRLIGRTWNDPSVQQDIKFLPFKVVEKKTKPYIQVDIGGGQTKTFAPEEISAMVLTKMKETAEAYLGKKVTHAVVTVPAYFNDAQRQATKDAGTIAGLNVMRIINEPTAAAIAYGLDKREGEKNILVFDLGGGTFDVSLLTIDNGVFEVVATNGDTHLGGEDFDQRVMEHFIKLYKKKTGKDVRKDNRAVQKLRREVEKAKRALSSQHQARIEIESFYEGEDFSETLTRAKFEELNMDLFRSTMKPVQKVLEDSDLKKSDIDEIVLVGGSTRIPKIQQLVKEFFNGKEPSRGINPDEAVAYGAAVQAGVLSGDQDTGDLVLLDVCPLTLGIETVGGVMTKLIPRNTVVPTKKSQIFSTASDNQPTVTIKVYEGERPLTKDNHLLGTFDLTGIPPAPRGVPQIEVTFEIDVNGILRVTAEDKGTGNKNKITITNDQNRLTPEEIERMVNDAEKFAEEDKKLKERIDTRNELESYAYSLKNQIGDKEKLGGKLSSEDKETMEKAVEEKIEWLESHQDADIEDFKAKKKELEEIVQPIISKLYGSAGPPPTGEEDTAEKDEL

B1: Grp78-scFv clone-19 (scFv)
scFv: EVQLVESGGGVVQPGRSLRLSCAASGFTFSSYGMHWVRQAPGKGLEWVAVISYDGSNKYYADSVKGRFTISRDNSKNTLYLQMNSLRAEDTAVYYCARKINSTKEVWGQGTLVTVSSGGGGSGGGGSGGSALQSVLTQPPSASGTPGQRVTISCSGSSSNIGSNYVYWYQQLPGTAPKLLIYRNNQRPSGVPDRFSGSKSGTSASLAISGLRSEDEADYYCAAWDDSLNPLVVFGGGTKLTVLGAAAHHHHHHGAAEQN
notes: Tested as soluble scFv made in E. coli HB2151 and purified on a Ni column, apparent size about 29 kDa; It was detected through its c-myc tag with mAb 9E10; also called anti-Grp78 scFv-19; scFv-19
Consider B1, for which the binding result is recorded as “binds”.
